From PMC3943411, “Modular assembly of designer PUF proteins for specific post-transcriptional regulation of endogenous RNA”
Residue numbers refer to the chain shown, from its start.

What was measured:
Details in all cases: protein: recombinant; tags: His-tag (pET28a); label: 5' 6-carboxyfluorescein
PUF (S6) [1] = target: T1, PUF (S6) (human, UniProt Q14671 828-1176, S863N;C935N;N971C;H972Y;C1007N;N1043C;N1122C); assay: fluorescence polarization/anisotropy; cognate; 1 nM RNA; 20 mM Tris-HCl pH 7.5, 0.5 mM EDTA, 50 mM KCl, 0.1 mg/ml BSA; temperature not stated; protein corrected for active fraction (about 30%); KD mean ± SD, n = 3
T1 sequence: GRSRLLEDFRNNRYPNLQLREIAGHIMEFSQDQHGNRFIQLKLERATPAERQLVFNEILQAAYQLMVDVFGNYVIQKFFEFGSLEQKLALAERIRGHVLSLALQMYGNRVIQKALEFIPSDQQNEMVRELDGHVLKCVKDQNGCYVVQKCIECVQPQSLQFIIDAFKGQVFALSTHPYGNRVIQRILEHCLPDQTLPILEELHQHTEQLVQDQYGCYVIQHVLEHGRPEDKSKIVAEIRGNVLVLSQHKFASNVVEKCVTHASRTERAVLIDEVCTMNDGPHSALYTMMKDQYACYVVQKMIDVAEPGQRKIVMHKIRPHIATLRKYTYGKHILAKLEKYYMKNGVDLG

PUF (S6) [2] = target: T1, PUF (S6); assay: fluorescence polarization/anisotropy; noncognate; 1 nM RNA; 20 mM Tris-HCl pH 7.5, 0.5 mM EDTA, 50 mM KCl, 0.1 mg/ml BSA; temperature not stated; protein corrected for active fraction (about 30%); KD mean ± SD, n = 3
PUF (S2) [3] = target: T2, PUF (S2) (human, UniProt Q14671 828-1176, S863N;N1122C); assay: as above
PUF (S4) [4] = target: T3, PUF (S4) (human, UniProt Q14671 828-1176, C935N;N971C;H972Y;C1007N;N1043C); assay: as above
T3 sequence: T1 sequence with N36S, C295N

PUF (S4) [5] = target: T3, PUF (S4); assay: fluorescence polarization/anisotropy; cognate; 1 nM RNA; 20 mM Tris-HCl pH 7.5, 0.5 mM EDTA, 50 mM KCl, 0.1 mg/ml BSA; temperature not stated; protein corrected for active fraction (about 30%); KD mean ± SD, n = 3
PUF (S2) [6] = target: T2, PUF (S2); assay: as above
PUF (S8) = target: T4, PUF (S8) (human, UniProt Q14671 828-1176, S863N;N899S;Q903E;C935N;N971C;H972Y;C1007N;N1043C;S1079N;E1083Q;N1122C); assay: as above
T4 sequence: T1 sequence with N72S, Q76E, S252N, E256Q

## CCAGAAUAGAUAUUUUUCG (ssRNA) [S6 RNA (AGAUAUUU)]
PUF (S6) [1]
  Kd: 6.05 ± 0.25 nM

## CCAGAAUUGUAUAUAUUCG (ssRNA) [WT RNA (UGUAUAUA)]
PUF (S6) [2]
  Kd: 89.6 ± 16.5 nM
PUF (S2) [3]
  Kd: 6.29 ± 2.8 nM
PUF (S4) [4]
  Kd: 5.77 ± 1.33 nM

## CCAGAAUUGAUAUUAUUCG (ssRNA) [S4 RNA (UGAUAUUA)]
PUF (S4) [5]
  Kd: 0.59 ± 0.1 nM

## CCAGAAUAGUAUAUUAUUCG (ssRNA) [S2 RNA (AGUAUAUU)]
PUF (S2) [6]
  Kd: 0.76 ± 0.11 nM

## CCAGAAUAUAUAUGUUUCG (ssRNA) [S8 RNA (AUAUAUGU)]
PUF (S8)
  Kd: 2.79 ± 0.69 nM
